Data on one substance can be found in PMC3038193.

For this assay, the target named is ApoE2 (C112S, C158S, A102C), labeled with Alexa488 or Alexa546 at position 102. The experiment in a line: FRET or BRET.

As to “ApoE2 (C112S, C158S, A102C), labeled with Alexa488 or Alexa546 at position 102 (natural protein)”, the k−1 (dissociation, dimer to monomers) stood at 0.00066 s⁻¹ and the k−2 (dissociation, tetramer to dimers) is 0.0036 s⁻¹.
